Data set [1] concerns the molecule itself. Nature of the data set: atomic force microscopy.
Data set [2] deals with T1, SMCHD1 ATPase domain (UniProt A6NHR9 25-581).
T1 sequence: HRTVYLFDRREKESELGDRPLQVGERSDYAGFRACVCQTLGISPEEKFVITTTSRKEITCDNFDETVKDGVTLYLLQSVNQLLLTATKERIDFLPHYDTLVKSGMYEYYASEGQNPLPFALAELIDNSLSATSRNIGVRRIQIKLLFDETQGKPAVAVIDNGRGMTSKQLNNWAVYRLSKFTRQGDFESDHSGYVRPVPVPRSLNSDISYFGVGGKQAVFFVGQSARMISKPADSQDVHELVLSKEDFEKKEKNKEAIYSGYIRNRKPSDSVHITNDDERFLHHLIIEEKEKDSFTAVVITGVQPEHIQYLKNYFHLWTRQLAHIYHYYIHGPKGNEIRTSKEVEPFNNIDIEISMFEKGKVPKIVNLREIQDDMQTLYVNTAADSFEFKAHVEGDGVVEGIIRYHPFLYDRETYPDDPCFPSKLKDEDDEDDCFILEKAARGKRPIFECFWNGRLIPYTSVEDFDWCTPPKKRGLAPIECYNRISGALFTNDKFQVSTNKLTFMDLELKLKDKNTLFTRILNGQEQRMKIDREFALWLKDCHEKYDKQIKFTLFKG
Nature of the data set: EMSA.

Data on 2 molecules can be found in paper doi:10.1101/2025.07.08.663435 (bioRxiv, 2025).

B1: SMCHD1^△CC, truncated SMCHD1 without both coiled-coil domains, purified (natural protein, human, UniProt A6NHR9 1-2005, looked up)
chain: MAAADGGGPGGASVGTEEDGGGVGHRTVYLFDRREKESELGDRPLQVGERSDYAGFRACVCQTLGISPEEKFVITTTSRKEITCDNFDETVKDGVTLYLLQSVNQLLLTATKERIDFLPHYDTLVKSGMYEYYASEGQNPLPFALAELIDNSLSATSRNIGVRRIQIKLLFDETQGKPAVAVIDNGRGMTSKQLNNWAVYRLSKFTRQGDFESDHSGYVRPVPVPRSLNSDISYFGVGGKQAVFFVGQSARMISKPADSQDVHELVLSKEDFEKKEKNKEAIYSGYIRNRKPSDSVHITNDDERFLHHLIIEEKEKDSFTAVVITGVQPEHIQYLKNYFHLWTRQLAHIYHYYIHGPKGNEIRTSKEVEPFNNIDIEISMFEKGKVPKIVNLREIQDDMQTLYVNTAADSFEFKAHVEGDGVVEGIIRYHPFLYDRETYPDDPCFPSKLKDEDDEDDCFILEKAARGKRPIFECFWNGRLIPYTSVEDFDWCTPPKKRGLAPIECYNRISGALFTNDKFQVSTNKLTFMDLELKLKDKNTLFTRILNGQEQRMKIDREFALWLKDCHEKYDKQIKFTLFKGVITRPDLPSKKQGPWATYAAIEWDGKIYKAGQLVKTIKTLPLFYGSIVRFFLYGDHDGEVYATGGEVQIAMEPQALYDEVRTVPIAKLDRTVAEKAVKKYVEDEMARLPDRLSVTWPEGDELLPNEVRPAGTPIGALRIEILNKKGEAMQKLPGTSHGGSKKLLVELKVILHSSSGNKEIISHISQHGGKWPYWFKKMENIQKLGNYTLKLQVVLNESNADTYAGRPLPSKAIKFSVKEGKPEKFSFGLLDLPFRVGVPFNIPLEFQDEFGHTSQLVTDIQPVLEASGLSLHYEEITKGPNCVIRGVTAKGPVNSCQGKNYNLKVTLPGLKEDSQILKIRLLPGHPRRLKVKPDSEILVIENGTAFPFQVEVLDESDNITAQPKLIVHCKFSGAPNLPVYVVDCSSSGTSILTGSAIQVQNIKKDQTLKARIEIPSCKDVAPVEKTIKLLPSSHVARLQIFSVEGQKAIQIKHQDEVNWIAGDIMHNLIFQMYDEGEREINITSALAEKIKVNWTPEINKEHLLQGLLPDVQVPTSVKDMRYCQVSFQDDHVSLESAFTVRPLPDEPKHLKCEMKGGKTVQMGQELQGEVVIIITDQYGNQIQAFSPSSLSSLSIAGVGLDSSNLKTTFQENTQSISVRGIKFIPGPPGNKDLCFTWREFSDFIRVQLISGPPAKLLLIDWPELKESIPVINGRDLQNPIIVQLCDQWDNPAPVQHVKISLTKASNLKLMPSNQQHKTDEKGRANLGVFSVFAPRGEHTLQVKAIYNKSIIEGPIIKLMILPDPEKPVRLNVKYDKDASFLAGGLFTDFMISVISEDDSIIKNINPARISMKMWKLSTSGNRPPANAETFSCNKIKDNDKEDGCFYFRDKVIPNKVGTYCIQFGFMMDKTNILNSEQVIVEVLPNQPVKLVPKIKPPTPAVSNVRSVASRTLVRDLHLSITDDYDNHTGIDLVGTIIATIKGSNEEDTDTPLFIGKVRTLEFPFVNGSAEIMSLVLAESSPGRDSTEYFIVFEPRLPLLSRTLEPYILPFMFYNDVQQVPHIEALLKRKLSEQEELKKKPRRSCTLPNYTKGSGDVLGKIAHLAQIEDDRAAMVISWHLASDMDCVVTLTTDAARRIYDETQGRQQVLPLDSIYKKTLPDWKRSLPHFRNGKLYFKPIGDPVFARDLLTFPDNVEHCETVFGMLLGDTIILDNLDAANHYRKEVVKITHCPTLLTRDGDRIRSNGKFGGLQNKAPPMDKLRGMVFGAPVPKQCEEKLGMTPIRKCNDSLRHSPKVETTDCPVPPKRMRREATRQNRIITKTDV
For the molecule B1, the binding result in data set [1] is reported as “binds”.

B2: FAM 37 bp duplex (dsDNA)
DNA 1: CCTAGGCTACACCTACTCTTTGTAAGAATTAAGCTTC
DNA 2: GAAGCTTAATTCTTACAAAGAGTAGGTGTAGCCTAGG
Take B2: the binding result in data set [2] was “binds”.
